Experimental data taken from publication PMC3342958, “IDN2 and Its Paralogs Form a Complex Required for RNA–Directed DNA Methylation”.

T1: IDP2 (Arabidopsis thaliana, UniProt F4JH53 1-635)
T1 sequence: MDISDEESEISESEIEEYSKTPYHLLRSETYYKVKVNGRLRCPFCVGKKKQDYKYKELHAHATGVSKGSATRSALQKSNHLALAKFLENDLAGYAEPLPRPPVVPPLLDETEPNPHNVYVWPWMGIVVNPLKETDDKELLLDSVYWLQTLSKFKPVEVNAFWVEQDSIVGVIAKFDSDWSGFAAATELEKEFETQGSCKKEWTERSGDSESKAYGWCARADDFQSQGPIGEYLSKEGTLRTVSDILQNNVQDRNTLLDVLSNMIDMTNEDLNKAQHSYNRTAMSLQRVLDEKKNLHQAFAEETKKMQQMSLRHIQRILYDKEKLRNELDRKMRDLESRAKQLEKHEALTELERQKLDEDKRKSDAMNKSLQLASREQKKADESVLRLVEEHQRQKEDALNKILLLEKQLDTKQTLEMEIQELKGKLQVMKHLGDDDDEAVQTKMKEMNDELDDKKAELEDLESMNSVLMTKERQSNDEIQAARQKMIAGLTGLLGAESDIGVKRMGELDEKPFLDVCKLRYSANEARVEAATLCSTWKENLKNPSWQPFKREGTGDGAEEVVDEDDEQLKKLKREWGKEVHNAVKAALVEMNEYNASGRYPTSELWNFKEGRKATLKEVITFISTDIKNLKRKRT

T2: IDP1 (Arabidopsis thaliana, UniProt Q9S9P3 1-634)
T2 sequence: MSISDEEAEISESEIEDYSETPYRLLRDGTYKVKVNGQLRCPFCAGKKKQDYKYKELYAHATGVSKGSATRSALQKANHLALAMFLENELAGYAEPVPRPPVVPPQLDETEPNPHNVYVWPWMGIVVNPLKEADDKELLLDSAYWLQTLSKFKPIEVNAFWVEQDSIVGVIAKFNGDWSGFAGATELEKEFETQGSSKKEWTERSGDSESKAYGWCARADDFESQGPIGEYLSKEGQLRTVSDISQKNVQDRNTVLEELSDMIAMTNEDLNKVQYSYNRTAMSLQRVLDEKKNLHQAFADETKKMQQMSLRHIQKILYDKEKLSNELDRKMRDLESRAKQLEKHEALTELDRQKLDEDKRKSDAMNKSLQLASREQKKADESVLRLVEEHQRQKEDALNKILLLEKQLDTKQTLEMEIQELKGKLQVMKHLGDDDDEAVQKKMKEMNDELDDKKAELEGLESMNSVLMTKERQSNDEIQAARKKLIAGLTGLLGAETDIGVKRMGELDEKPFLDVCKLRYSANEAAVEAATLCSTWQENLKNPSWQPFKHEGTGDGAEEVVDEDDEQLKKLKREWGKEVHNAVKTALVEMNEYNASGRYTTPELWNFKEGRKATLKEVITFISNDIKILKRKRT

T3: IDN2 (Arabidopsis thaliana, UniProt Q8VZ79 1-647)
T3 sequence: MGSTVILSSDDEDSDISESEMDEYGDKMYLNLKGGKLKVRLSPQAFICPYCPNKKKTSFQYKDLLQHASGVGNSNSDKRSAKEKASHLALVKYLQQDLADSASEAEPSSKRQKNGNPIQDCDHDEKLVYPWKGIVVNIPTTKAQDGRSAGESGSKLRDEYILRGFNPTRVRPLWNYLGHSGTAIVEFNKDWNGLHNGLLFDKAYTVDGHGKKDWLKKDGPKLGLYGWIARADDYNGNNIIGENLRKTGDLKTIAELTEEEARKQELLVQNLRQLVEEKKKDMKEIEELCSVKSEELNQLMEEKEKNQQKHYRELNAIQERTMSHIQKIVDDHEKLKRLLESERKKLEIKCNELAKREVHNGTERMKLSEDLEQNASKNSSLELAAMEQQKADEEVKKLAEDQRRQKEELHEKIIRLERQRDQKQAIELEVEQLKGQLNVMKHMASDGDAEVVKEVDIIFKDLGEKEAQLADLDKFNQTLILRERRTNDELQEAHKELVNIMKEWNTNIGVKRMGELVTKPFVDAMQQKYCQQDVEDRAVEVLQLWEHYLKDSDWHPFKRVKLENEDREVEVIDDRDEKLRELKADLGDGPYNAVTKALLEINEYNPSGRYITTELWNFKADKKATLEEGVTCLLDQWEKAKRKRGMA

T4: IDN2-a (XS+coiled-coil) (Arabidopsis thaliana, UniProt Q8VZ79 1-511)
T4 sequence: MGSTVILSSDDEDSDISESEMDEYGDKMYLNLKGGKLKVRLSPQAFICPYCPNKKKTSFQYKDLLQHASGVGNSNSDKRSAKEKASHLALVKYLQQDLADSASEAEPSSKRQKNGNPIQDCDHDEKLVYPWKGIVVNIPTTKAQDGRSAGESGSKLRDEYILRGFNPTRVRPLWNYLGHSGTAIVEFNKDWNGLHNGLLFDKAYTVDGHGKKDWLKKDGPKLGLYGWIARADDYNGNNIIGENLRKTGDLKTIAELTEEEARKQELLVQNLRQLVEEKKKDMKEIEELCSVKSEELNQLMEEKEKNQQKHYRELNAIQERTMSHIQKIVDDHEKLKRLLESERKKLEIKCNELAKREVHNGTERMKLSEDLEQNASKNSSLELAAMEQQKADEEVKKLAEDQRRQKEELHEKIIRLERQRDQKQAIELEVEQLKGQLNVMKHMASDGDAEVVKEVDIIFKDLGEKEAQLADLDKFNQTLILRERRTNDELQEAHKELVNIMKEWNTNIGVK

B1: RD29A dsRNA, 5' overhang (dsRNA)
RNA 1: ACGCUUCAUACGUGUCCCUUUAUCUCUCUCAGUCU
RNA 2: AGAGACUGAGAGAGAUAAAGGGACACGUAUGAAGC
B2: RD29A dsRNA, blunt (dsRNA)
RNA 1: B1 RNA 1
RNA 2: AGACUGAGAGAGAUAAAGGGACACGUAUGAAGCGU

Tests used:
[1] = biological target: T1, IDP2; experiment: EMSA; 12.5 mM MgCl2; up to 6.4 ug protein; 25 mM HEPES pH 7.6, 50 mM KCl, 0.1 mM EDTA, 12.5 mM MgCl2, 1 mM DTT, 0.5% BSA, 5% glycerol, 2 ug protein, room temperature 30 min; 4% native PAGE; conditions: protein: recombinant, tags: His (pET28a), label: 5'-32P
[2] = biological target: T2, IDP1; experiment: as above; conditions: protein: recombinant, tags: His (pET28a), label: 5'-32P
[3] = biological target: T3, IDN2; experiment: EMSA; 12.5 mM MgCl2; 25 mM HEPES pH 7.6, 50 mM KCl, 0.1 mM EDTA, 12.5 mM MgCl2, 1 mM DTT, 0.5% BSA, 5% glycerol, 2 ug protein, room temperature 30 min; 4% native PAGE; conditions: protein: recombinant, tags: His (pET28a), label: 5'-32P
[4] = biological target: T4, IDN2-a (XS+coiled-coil); experiment: as above; conditions: protein: recombinant, tags: His (pET30a), label: 5'-32P

| Binder | binding result ([1]; 5' overhangs 2 nt at both ends) | binding result ([2]; 5' overhangs 2 nt at both ends) | binding result ([3]; 5' overhangs 2 nt at both ends) | binding result ([4]; 5' overhangs 2 nt at both ends) | binding result ([1]; blunt) | binding result ([2]; blunt) | binding result ([3]; blunt) | binding result ([4]; blunt) |
| --- | --- | --- | --- | --- | --- | --- | --- | --- |
| B1 | no binding | no binding | binds | binds |  |  |  |  |
| B2 |  |  |  |  | no binding | no binding | binds | binds |
